Reference: US20140105855A1 (published 2014)

B2: IL-17RC extracellular domain (receptor, UniProt Q8NAC3 21-538, looked up)
chain: LERLVGPQDATHCSPVSLEPWGDEERLRVQFLAQQSLSLAPVTAATARTALSGLSGADGRREERGRGKSWVCLSLGGSGNTEPQKKGLSCRLWDSDILCLPGDIVPAPGPVLAPTHLQTELVLRCQKETDCDLCLRVAVHLAVHGHWEEPEDEEKFGGAADSGVEEPRNASLQAQVVLSFQAYPTARCVLLEVQVPAALVQFGQSVGSVVYDCFEAALGSEVRIWSYTQPRYEKELNHTQQLPDCRGLEVWNSIPSCWALPWLNVSADGDNVHLVLNVSEEQHFGLSLYWNQVQGPPKPRWHKNLTGPQIITLNHTDLVPCLCIQVWPLEPDSVRTNICPFREDPRAHQNLWQAARLQLLTLQSWLLDAPCSLPAEAALCWRAPGGDPCQPLVPPLSWENVTVDKVLEFPLLKGHPNLCVQVNSSEKLQLQECLWADSLGPLKDDVLLLETRGPQDNRSLCALEPSGCTSLPSKASTRAARLGEYLLQDLQSGQCLQLWDDDLGALWACPMDKYIHKR
notes: extracellular domain; biotinylated when immobilised
B4: IL-17RB extracellular domain (receptor, UniProt Q9NRM6 18-292, looked up)
chain: REPTVQCGSETGPSPEWMLQHDLIPGDLRDLRVEPVTTSVATGDYSILMNVSWVLRADASIRLLKATKICVTGKSNFQSYSCVRCNYTEAFQTQTRPSGGKWTFSYIGFPVELNTVYFIGAHNIPNANMNEDGPSMSVNFTSPGCLDHIMKYKKKCVKAGSLWDPNITACKKNEETVEVNFTTTPLGNRYMALIQHSTIIGFSQVFEPHQKKQTRASVVIPVTGDSEGATVQLTPYFPTCGSDCIRHKGTVVLCPQTGVPFPLDNNKSKPGGWLP
notes: extracellular domain; biotinylated when immobilised on the SPR chip

How the values were obtained:
[1] = target: B4; assay: SPR, IL-25 captured on immobilised IL-17RB
Method: (§1) To examiner whether IL-17RA may only specifically bind IL-25 once IL-25 is captured by IL-17RB, IL-17RB was immobilized on an SPR chip, IL-25 was passed over this chip and the affinity of IL-17RA for the IL-17RB-IL-25 complex was measured. […] At concentrations up to 50 μM, no interaction could be observed between IL-17RA and IL-25, or between the IL-17RB-IL-25 complex and a second IL-17RB molecule.
(§2) Binding affinities were calculated via surface plasmon resonance (SPR) on a Biacore® T100 (GE Healthcare). C-terminally biotinylated IL-17 receptors were coupled to immobilized streptavidin on either an SA or CM4-sensor chip (GE Healthcare). An irrelevant, biotinylated protein was captured at equivalent immobilization densities to control flow cells. To measure the second receptor binding interaction, the cytokine was first captured to the immobilized receptor, followed by the second receptor injection. Low coupling densities (200-400 RU) and excess cytokine concentrations were used to optimize the number of cytokine homodimers bound to a single receptor. The surface was regenerated using 3 M MgCl2 between each cycle. For kinetic experiments, a flow rate of 50 μl/min was used. Data was analyzed using Biacore® T100 evaluation software Version 2.0 (GE Healthcare). Affinities are reported as the mean of at least two independent experiments±the standard error of the mean (s.e.m.).

[2] = target: T1, preformed IL-17RA-IL-17A complex (IL-17A captured by immobilised IL-17RA) (human, UniProt Q16552 24-155); assay: SPR, second receptor injected over IL-17A captured on immobilised IL-17RA
T1 construct: mature; One receptor with one cytokine dimer, assembled stepwise on the SPR chip; not shown: C-terminal BirA ligase tag
T1 sequence (Q16552 other isoform, or with tags, fused parts or gaps): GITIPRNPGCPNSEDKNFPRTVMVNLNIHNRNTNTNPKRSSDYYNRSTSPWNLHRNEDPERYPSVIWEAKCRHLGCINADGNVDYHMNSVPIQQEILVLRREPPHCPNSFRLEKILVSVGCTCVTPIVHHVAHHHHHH
Source text: (§3) This strategy involved immobilizing one receptor on a SPR chip at a low coupling density in order to minimize possible homo-dimerization (e.g. cross-linking) of the receptors on the chip. The dimeric IL-17 cytokine was then captured by this receptor so that each receptor would be bound to one dimeric IL-17 ligand, leaving an exposed and accessible second receptor-binding site. The second receptor was subsequently passed over the preformed receptor-cytokine complexes to measure the affinity of the second receptor-binding event. In this fashion, the complex was assembled in a stepwise manner and each of the binding affinities was measured (FIG. 3).
as §2, with “The surface was regenerated using 3 M MgCl2 between each cycle. For kinetic experiments, a flow rate of 50 μl/min was used.” left out, “Affinities are reported as the mean of at least two independent experiments±the standard error of the mean (s.e.m.).” left out

[3] = target: T2, preformed IL-17RC-IL-17A complex (IL-17A captured by immobilised IL-17RC) (UniProt Q8NAC3 21-538; Q16552 24-155, biotin on the C-terminal BirA ligase tag); assay: SPR, second receptor injected over IL-17A captured on immobilised IL-17RC
T2 construct: extracellular domain;mature; One receptor with one cytokine dimer, assembled stepwise on the SPR chip; also called existing IL-17RC-IL-17A complex; not shown: C-terminal BirA ligase tag
T2 sequence (Q16552 other isoform, or with tags, fused parts or gaps): as above
Source text: as §3
as §2, with “The surface was regenerated using 3 M MgCl2 between each cycle. For kinetic experiments, a flow rate of 50 μl/min was used.” left out, “Affinities are reported as the mean of at least two independent experiments±the standard error of the mean (s.e.m.).” left out

[4] = target: B2; assay: SPR, biotinylated receptor on streptavidin chip, cytokine injected
Method: as §2

[5] = target: T3, preformed IL-17RB-IL-25 complex (IL-25 captured by immobilised IL-17RB) (UniProt Q9NRM6 18-292; Q9H293 33-177, biotin on the C-terminal BirA ligase tag); assay: SPR; second receptor injected over IL-25 captured on immobilised IL-17RB
T3 construct: extracellular domain;mature; One receptor with one cytokine dimer, assembled stepwise on the SPR chip; not shown: C-terminal BirA ligase tag
T3 sequence 1: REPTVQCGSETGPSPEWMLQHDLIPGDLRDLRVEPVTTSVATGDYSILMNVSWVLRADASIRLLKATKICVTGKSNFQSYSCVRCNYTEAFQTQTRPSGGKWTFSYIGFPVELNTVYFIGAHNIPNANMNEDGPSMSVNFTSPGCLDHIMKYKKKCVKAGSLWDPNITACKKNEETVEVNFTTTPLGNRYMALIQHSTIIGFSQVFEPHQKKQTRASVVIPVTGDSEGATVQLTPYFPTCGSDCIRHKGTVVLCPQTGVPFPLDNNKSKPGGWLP
T3 sequence 2: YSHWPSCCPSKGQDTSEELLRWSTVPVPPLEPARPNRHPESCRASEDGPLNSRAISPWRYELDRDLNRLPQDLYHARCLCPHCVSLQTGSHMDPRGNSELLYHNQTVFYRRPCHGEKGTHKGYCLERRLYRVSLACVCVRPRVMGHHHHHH
Method: as §1, §2

B1: IL-25 (ligand)
chain: YSHWPSCCPSKGQDTSEELLRWSTVPVPPLEPARPNRHPESCRASEDGPLNSRAISPWRYELDRDLNRLPQDLYHARCLCPHCVSLQTGSHMDPRGNSELLYHNQTVFYRRPCHGEKGTHKGYCLERRLYRVSLACVCVRPRVMGHHHHHH
notes: mature; The form 'mature' is inferred from secretion; also called IL-17E
Q: Does B1 bind [1]?
A: Result: binds

Q: B2 was tested. Which Kd [2] did it give?
A: The Kd was 174 nM.

Q: What about the Kd [3] of the same binder?
A: Its Kd is 8000 nM.

B3: IL-17F (ligand, human)
chain: RKIPKVGHTFFQKPESCPPVPGGSMKLDIGIINENQRVSMSRNIESRSTSPWNYTVTWDPNRYPSEVVQAQCRNLGCINAQGKEDISMNSVPIQQETLVVRRKHQGCSVSFQLEKVLVTVGCTCVTPVIHHVQHHHHHH
notes: mature; For the crystal the His tag was removed with carboxypeptidase A and the complex was lysine-methylated; For SPR the cytokine carried the C-terminal hexa-His tag; also called IL-17F homodimer
Q: For B3, which Kd [4] is on record?
A: The Kd was 4.4 nM.

Q: Does B4 bind [5]?
A: Result: no binding (tested: up to 50 µM)
